The data set relates to Saccharomyces cerevisiae. As to the kind of experiment: transcriptional activation domain activity (GFP:mCherry ratio, weighted mean of sorted bins, harmonized to initial dataset scale) (arbitrary fluorescence ratio units); higher = stronger transcriptional activation. To be noted: beta-estradiol 1 µM; induction time 4 h. An outline of the steps:
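Yeast diploids with a GFP reporter received barcoded protein tiles, fused to an estradiol-inducible synthetic transcription factor, at the URA3 locus. Cultures were diluted 1:5 into SC holding 1 uM beta-estradiol, incubated 4 hours at 30 °C, sorted into 8 bins on GFP:mCherry ratio, and sequenced for barcodes, with tiles under 50 reads discarded. Activation activity values come from the read-weighted mean of bin median fluorescence, averaged across barcodes and linearly placed on the initial dataset scale.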

As to “LPLYILSLLCCFFIIAMFWKVTIPFFLIFPSFFMLSCFHLYFSFSPSRWCILN”, the “transcriptional activation domain activity” value worked out at 38600.
To “LPLYNFVRQHLCVFLDRYEHMLTRFLTLGNIMVVSSAVRRGAYWHLLETCQHT” belongs 50200; to “LPNFLKLGLTTLYSAIGFDEWPSDAVKWAYYFSNIRMVRSWSSWDLYQHLVPW”, 45500; to “LPNVCLILPVYLRALVLNTLQVDKDQRTLLYESIRGHIVTLRGCKTGSKVIWL”, 60800.
With “LPQMGVPGEPLTLLVEFADMLIEMWHQCLAQRYYGPIYHLVALIVYTLELNAT”, the “transcriptional activation domain activity” value came to 54200.
In the case of “LPRFFFLSFYTFLLIFPLLHLFHHLSLLFSPPILLYSSLILFFSHFLPLLLFL”, the “transcriptional activation domain activity” value came out at 38900.
To “LPSFLFSSLYCFSLLFLSFLSFFPFLTLLLLFSLFPSLSLSLFFSLLFSPQRL” belongs 63400; to “LPSLAQIDVLIRRERMVTIERHPLCLSLVVASQYTLGPLLLLRIVHCIYKTYG”, 58200; to “LPSSLLFLLPHLFPTLPLLPSIPLLTPSSSSLFFHLICLYCPPFAFWAWFWFW”, 55900.
With “LPTGSLLPGVGPLRSLIFDLELTRHIVDAYDLYDILFHPRTLPLLCHLTYLHI”, the “transcriptional activation domain activity” value came to 41800.
To “LPTINTAIPTAAVPQQNIAPPFLNTNSSATDSNPNTNLEDSLFFDHDLLSSSI” belongs 49800.
To “LPTKYRVLDGLFQALAVRAGGFYVVTIANLRQGLLYVSAYPVTLTMRNTNVYE” belongs 48900; to “LPTNPTTHPLLFSAIHFFIYNVGDLLGRYICSFSCFIIWSQPMLLGLSLARVV”, 77600.
To “LPTSFLEYCFRLICLWKPHLIREYFKEWFIFPNVVGWKYILQTFFNILEHVHD” belongs 46600.
As for “LPVYQLSVSPWKSKEAMDAWCMAKIESLLLDFKFLNAWVQLLVANNLQQIHIP”, the “transcriptional activation domain activity” value was 63900.
As to “LQAAAALESNTADGEDTNMETEEDKSGADGRSVYVGNVGYRFAVLLASNQVDY”, the “transcriptional activation domain activity” value stood at 36600.
Regarding “LQAARSADIAISQFRYLKKLLLVHGAWSYRRLATLILYSFYKNVVLYMTQFWF”, the “transcriptional activation domain activity” value amounted to 65100.
For the sequence “LQAMLLLAHMILAIPFFSLFCRLLLLHPTNPDSPVLWMSLHVFFTYLWSLALV”, the “transcriptional activation domain activity” value worked out at 66000.
To “LQASREEIRKKVSEDDHGLTRFRRQVVLALDLYIWEPICISLRFLRLVMIFVP” belongs 52400.
As to “LQCEGFTLRVPFVVDDTFYALMRCFDFFTIDEDPELWRLWCSLLRYALRLQNG”, the “transcriptional activation domain activity” value was 40200.
To “LQCLLLSVLSPIGLVLLYSHLIGTDLIVIVSQLMFDYQVVQSWFIIFVCLVYW” belongs 57400.
For the sequence “LQHLVVPILFLGPLYATYLNQTLPFQAFWDYDEYVLRKYFSFMGLRTYIIGPI”, the “transcriptional activation domain activity” value was 52300.
“LQHRTWLIHWSLFPLFNYEQARETLTELFFSAPYINTIQTNCPWILRYLAAAV”: the “transcriptional activation domain activity” value was found to be 28100.
To “LQILRVVLHLLIFDLHSSSSLTFPLPFPLALPFFIYPLNFLFLFWSFMCTFMY” belongs 84800; to “LQKDKFKVELQLLDIRVSDKLLMGIEKAIREFLTQKFVICRRVFVPWVPKVLF”, 61500.
For the sequence “LQKTVNLKNIMKVSDPYVPTRNTFNYDVKISNDFFDNGDNLYGNDEEVLFYED”, the “transcriptional activation domain activity” value was determined as 61500.
To “LQKYTQLSLLAKPLINLSNHSIQYQTLQSWYFKTLQSLEANRFRNFMLCHRIL” belongs 62300; to “LQLAFYFGFIMVFVCSYMKRNTLVLLLFLLNNLCMVFRFYASDLLYQYWLIPV”, 61800.
“LQLEMMEGIEDLDLEFDRMLDDFIIINFFIGNDFLPELPMLMVNDGAVPVILS”: the “transcriptional activation domain activity” value was found to be 85100.
To “LQLYLSSHHREMLVDIWDRLWPWMVFFHVNRGCIADPFMLRPHPCFNLLHFIV” belongs 65600.
Take “LQQLLLRDYFKYFIKVFQDLSTYERKSYFVFRQMAYAIISIAQGRGCIEFQCH”: the “transcriptional activation domain activity” value amounted to 43100.
To “LQQTKRQHSAPSQISANENNIYNLGTLEEFVSSGDLTDLYHTLWNDNTSYPFL” belongs 128000; to “LQQVCNVLPSFEQSSKIITDFFNTELETNEVSEVLDKTKIINDFTSSFLPSDE”, 50400; to “LQRKNPEEQIAVNKVISLLYSNRESSYLEDTCPTENDYSDLLKGYINEIEKTL”, 33800.
For the sequence “LQRNILWGMLIFVLAQGLSSTIVVAGFLCTPLSQVWTTPTAIGGPTCINILTF”, the “transcriptional activation domain activity” value amounted to 61900.
As to “LQRPVRIMVDTKHSTVKTLVQEFVRIRPQRDHLRLAMLVLLCRDYFHKRVIVF”, the “transcriptional activation domain activity” value was found to be 49000.
Regarding “LQSPLYGRHILVAQQLVYYGCVILFPWLFISCALMFKFRGSWLLLYGMIDLSL”, the “transcriptional activation domain activity” value stood at 44100.
To “LQSSLLHPCAFYVRLLISILIEYISLPCLTIDFFFFFIFRVTFPIFFLTFFYL” belongs 61400; to “LQTYMRSLEWTILTCSVIEIIEKLKMAPENMHELSPLCVKLIIKFCLTEILSY”, 43400; to “LQVVIEECDLMPTVAVLLRDAKKVFPERDGFFLYRQMAISVVCVYILCSLFAL”, 67900.
Regarding “LRAEGLFQCNYLSYFIELTRYTFLFSMFLILLRSGWFGTSGLFLGMLWHQLVF”, the “transcriptional activation domain activity” value was 37500.
Take “LRAIFLALLPVVYYFTYMLVLFLFLLTYYNPFSPFSHAVRPITPPLISIFSSF”: the “transcriptional activation domain activity” value came out at 67800.
To “LRALCFEAIRNKGQSVMIARLLQRYMGQLTWLRGGNGVSLLVMVVRDVLLEMQ” belongs 58900; to “LRAMVMAAPYDGDINITFTKHRSKIYIRPNNTLSELLSNGWIKFLAIILFIYP”, 36600; to “LRAYPVPQALQIAGNESVSPCLVRCLRLLTVLADLLYMHRGFFARALNDHPKD”, 46700.
With “LRCVGFILYLLLLIGKIMAFKEIDLLQEHQNFWAKVIYNARGSNRSWDWLSMI”, the “transcriptional activation domain activity” value was found to be 59600.
To “LRDLERSFDLLRFTWVPSIACWILPLLTRPDFSTLLSVLGETIQRFSSNFVIM” belongs 73700.
For “LREGGVLAVDGTSVGSVEVIYSYSIVVHTRITFRVVARVGRCLVVCLVRWDFY”, the “transcriptional activation domain activity” value came out at 38200.
For the sequence “LREKGGSQQQQHQQQQQQQQQQQQQQQQQSLDTLLHHYQSLLSKSDNAIAFDD”, the “transcriptional activation domain activity” value stood at 26800.
To “LRELHKSSFTNSLRQWVMSGVYQLDPFVRPYLRAYAIACLRIVFHILPHLTSM” belongs 48200; to “LREVYLLSLFYRIKIRFLEAGFNRLKNLIKLDTRYYIVSFTYIVLELLKAKML”, 63300; to “LRGGYTCQLNGTPKNPDLQVWLQLNLIAYFSFLDTRACDGKTASITGSAEMPF”, 51900.
For the sequence “LRHICLLLSIWSKHLIERLKKLPANVRLTIVQALVRFVIPKLHIYGHKLLCQL”, the “transcriptional activation domain activity” value is 44500.
In the case of “LRKSQDRLWAERPWYFYPMYFNEHGNGIFPEVVHLNDAVVIGVLHYYLIQVLL”, the “transcriptional activation domain activity” value is 46400.
To “LRLAVKNMSEDLPPLVPDIVNLVKRLKWSKAACCYYVLVSNALSLVVFLIDTY” belongs 54900; to “LRLDGSYLYFADVREANVEQLRLNFTADDVIFKCLAWSIRHFMILRDNYFGSF”, 46300.
Turning to “LRLIWVYLYRCHESGSTVTSKLESLLKHFFPPNRLIVVPQEERLEPFVCIVHF”, the “transcriptional activation domain activity” value is 53100.
Turning to “LRLLVAWLIPQLEMWLHTNMGVRFLLIEYTPEHLGTVLALREFIGDHMFKVAG”, the “transcriptional activation domain activity” value came out at 49000.
To “LRLSTTISAYGIGIGYTAAVLVQVLSIVILILLESTTFALRLVLFVVGAWWLI” belongs 46900.
“LRLVIENIQKYGNLVCLTCHDFRRKDLLLGVGLYFLIPCFLWVALSIELVAAR”: the “transcriptional activation domain activity” value came to 63600.
To “LRLVYCQVKKKKYKSINRYVAIHELSYNVMIWRFLAIYHSSQRLKWSIFLLSF” belongs 42100.
Take “LRNGYVDLGTHCITLFAQLMYVDCRTVFAEQIFTLAWYTTKGMGTIIATIGDY”: the “transcriptional activation domain activity” value is 43400.
“LRPGRQAQRRHVLALQARPALLLPPDLDARAVQPAHRQPQGPEEGGRAGPARP”: the “transcriptional activation domain activity” value was 15100.
To “LRPHRYFHTNQIYYAAILIDLILRFTWLSRLSVRINWINDLESGVFVLMFLEV” belongs 62500; to “LRQRILYIYKWFLRKIYPSINAAYYLSILSFSLMYLFDNTKYSNPFLWLIHTR”, 63900; to “LRRGFSKLLLIDDLYVLDKHLRSDRLRDLLWSAYVRAIVPRLCLIAFNFCQPF”, 60800.
Take “LRSVGRGGNSLVVIGFFVMNGVGIVLERVWKRICGRSVRGIWGWIWTFSWLAL”: the “transcriptional activation domain activity” value came out at 79900.
To “LRWMLRCAFALTRYGTTAFLLFFVYVVFLLRVYLLTDRRRSLLYCLTATFVVE” belongs 40100; to “LRWVLLPLCLFFSVCLEAHWPSISLAIVIIAYNELHMSSHWFLRGFCYAWGNA”, 36800; to “LRWVRSNWRSNLTSLSELHMWWNYPWSLYAVFQTTITQWAFLLDCLLFACFYF”, 33700.
To “LRYALDLYRSLRAKVWENSPLILRQLEGIGKMILIISLLRKLIGVIIQLMYCF” belongs 55500; to “LSADYLCQYSGSLIGKHFKSLAQVMPFIIYDLVPKTVLNAWNVIGNLVVMLWH”, 46100.
To “LSAFCCTLVDRYLLSTEYSHFSICLVRSVLNWVARGISSLLLLHFFLLLVMYE” belongs 50600; to “LSAIVWQIVVDYFYDFVYLTSGLLWPPPTDFIMHTEHFYAGQLIVLLFFYTSL”, 69200.

The record behind these values is the supplement of paper PMC12636428.
